B1: glmS ribozyme (parent)
chain: AUAAAAGCGCCAGAACUACAGAAAUGUAGUUGACGAGGAGGAGGUUUAUCGAAUUUUCGGCGGAUGCCUCCAAA

What all share (settings): with glucosamine-6-phosphate
Variants of B1 are the subject of series [1]. Put plainly: self-cleavage kobs at 40 uM GlcN6P; higher = faster cleavage; RNA array. Summed up:
(§1)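 On sequenced MiSeq chips, barcoded ribozyme variants were made in situ by E. coli RNA polymerase and followed at 37 °C through a hybridised Cy3 probe. Glucosamine-6-phosphate was flowed in at 40 μM to 10 mM in HEPES/KCl/Mg(OAc)2 buffer. Exponential fits to normalised per-tile medians gave kobs, and weighted Michaelis–Menten fits gave kcat and KM.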

The variants in series [2] derive from B1. Kind of series: self-cleavage kobs at 10000 uM GlcN6P; higher = faster cleavage; RNA array. Summed up:
as §1

In series [3] the parent is B1. Put plainly: self-cleavage kobs at 160 uM GlcN6P; higher = faster cleavage; RNA array. Put shortly:
as §1

The variants in series [4] derive from B1. Kind of series: self-cleavage kobs at 2500 uM GlcN6P; higher = faster cleavage; RNA array. Put shortly: as §1
In series [5] the parent is B1. Put plainly: self-cleavage kobs at 640 uM GlcN6P; higher = faster cleavage; RNA array. Summed up: as §1

Here are results for 13 variants from the supplement of paper PMC7125110.

± gives the standard error. Fewer inactive variants are shown than the library holds.

With AUAAAAGCGGCAGAAGUACAGAAAUGUAGUUGACCAGGCGGAGGUUUAUCGAAUUUUCGGCGGAUGCCUCCAAA [C10G C16G G35C A39C], the “self-cleavage kobs at 40 uM GlcN6P” value with glucosamine-6-phosphate [1] is under 1e-05 s⁻¹. Moreover, the “self-cleavage kobs at 10000 uM GlcN6P” value in the series with glucosamine-6-phosphate [2] was under 1e-05 s⁻¹.

AUAAAAGCGCCAGAACUACAGAAAUGUAGUUGACGAGGAGGAGGUUAAUCCAAUUUUCGGCGGAUGCCUCCAAA [U47A G51C]: in the series with glucosamine-6-phosphate [1], the “self-cleavage kobs at 40 uM GlcN6P” value is under 1e-05 s⁻¹. Moreover, the “self-cleavage kobs at 160 uM GlcN6P” value with glucosamine-6-phosphate [3] is under 1e-05 s⁻¹. For the same variant, the “self-cleavage kobs at 2500 uM GlcN6P” value with glucosamine-6-phosphate [4] is under 1e-05 s⁻¹. The “self-cleavage kobs at 10000 uM GlcN6P” value with glucosamine-6-phosphate [2] was under 1e-05 s⁻¹.

On to AUAAAAGCGCCAGAACUACAGAAAUGUAGUUGACGAGGAGCAGGUUUAGCGAGUUUUCGGCGGAUGCCUCCAAA [G41C U49G A53G], for which the “self-cleavage kobs at 40 uM GlcN6P” value with glucosamine-6-phosphate [1] was under 1e-05 s⁻¹.

Take AUAAAAGCCCCAGAACUACAGAAAUGUAUUUGACGAGGAGGAGGUUUAUCGAAUUUUCGGCGGAUGCCUCCAAA [G9C G29U]: the “self-cleavage kobs at 40 uM GlcN6P” value with glucosamine-6-phosphate [1] was under 1e-05 s⁻¹. For the same variant, the “self-cleavage kobs at 160 uM GlcN6P” value with glucosamine-6-phosphate [3] was under 1e-05 s⁻¹. The “self-cleavage kobs at 640 uM GlcN6P” value with glucosamine-6-phosphate [5] is under 1e-05 s⁻¹. Besides, in the series with glucosamine-6-phosphate [2], the “self-cleavage kobs at 10000 uM GlcN6P” value was under 1e-05 s⁻¹.

For AUAAAAGCGCCAGAACUACAGAAAUGUAGUUGACGAGGAGGGGGUUUAUCAUAUUUUCGGCGGAUGCCUCCAAA [A42G G51A A52U], the “self-cleavage kobs at 40 uM GlcN6P” value with glucosamine-6-phosphate [1] is under 1e-05 s⁻¹. For the same variant, the “self-cleavage kobs at 2500 uM GlcN6P” value in the series with glucosamine-6-phosphate [4] was under 1e-05 s⁻¹.

For AUAAAAGCGCCAGAACUACAGAAAUGUAGUUGACGAGGAGGAGGUUUAUCGAAUCUUCGGCAGAUGCCUCCAAA [U55C G62A], the “self-cleavage kobs at 40 uM GlcN6P” value in the series with glucosamine-6-phosphate [1] is under 1e-05 s⁻¹. The “self-cleavage kobs at 160 uM GlcN6P” value in the series with glucosamine-6-phosphate [3] was under 1e-05 s⁻¹. In the series with glucosamine-6-phosphate [5], the “self-cleavage kobs at 640 uM GlcN6P” value is under 1e-05 s⁻¹. Besides, the “self-cleavage kobs at 2500 uM GlcN6P” value with glucosamine-6-phosphate [4] was under 1e-05 s⁻¹. In the series with glucosamine-6-phosphate [2], the “self-cleavage kobs at 10000 uM GlcN6P” value was under 1e-05 s⁻¹.

As for AUAAAAGCGCCAGAACUACAGAAAUGUAGUUGACGAGGAGGAGGUUUAUCGAAUUUGCGCCGGAUGCCUCCAAA [U57G G60C], in the series with glucosamine-6-phosphate [1], the “self-cleavage kobs at 40 uM GlcN6P” value was under 1e-05 s⁻¹. The “self-cleavage kobs at 160 uM GlcN6P” value with glucosamine-6-phosphate [3] is under 1e-05 s⁻¹. In addition, the “self-cleavage kobs at 640 uM GlcN6P” value with glucosamine-6-phosphate [5] is under 1e-05 s⁻¹. The “self-cleavage kobs at 2500 uM GlcN6P” value with glucosamine-6-phosphate [4] was under 1e-05 s⁻¹.

Turning to AUAAAAGCACCAAAACUACAGAAAUGUAGUUGAGGAGGAGGAGGUUUACCGAAUUUUCGGCGGAUGCUUCCAAA [G9A G13A C34G U49C C68U], the “self-cleavage kobs at 40 uM GlcN6P” value in the series with glucosamine-6-phosphate [1] is under 1e-05 s⁻¹.

Consider AUAAACGCGCCAGAACUACAGAAAUGUAGUUGACGAGGAGGUGGUUUAUCGAAUUUUCGGCGGAUGCCUCCAAA [A6C A42U], for which the “self-cleavage kobs at 40 uM GlcN6P” value in the series with glucosamine-6-phosphate [1] was under 1e-05 s⁻¹. Moreover, in the series with glucosamine-6-phosphate [3], the “self-cleavage kobs at 160 uM GlcN6P” value was under 1e-05 s⁻¹. Besides, the “self-cleavage kobs at 640 uM GlcN6P” value in the series with glucosamine-6-phosphate [5] is under 1e-05 s⁻¹. For the same variant, the “self-cleavage kobs at 10000 uM GlcN6P” value with glucosamine-6-phosphate [2] is under 1e-05 s⁻¹.

AUAAAAGCGCCAGAACUACAGAAAUGUAGUUGACGAGGAGUUGGUUUAUGGAAUUUUCGGCGGAUGCCUCCAAA [G41U A42U C50G]: the “self-cleavage kobs at 40 uM GlcN6P” value with glucosamine-6-phosphate [1] was under 1e-05 s⁻¹. For the same variant, in the series with glucosamine-6-phosphate [5], the “self-cleavage kobs at 640 uM GlcN6P” value is under 1e-05 s⁻¹.

AUAAAAGCGCCAGAACUACAGAAAUGUAGUUGACCAGGAGGAGGUUUAUCGAAUUUUCGGCGGAUGCCUCUAAA [G35C C71U]: the “self-cleavage kobs at 40 uM GlcN6P” value in the series with glucosamine-6-phosphate [1] was under 1e-05 s⁻¹. Also, the “self-cleavage kobs at 640 uM GlcN6P” value with glucosamine-6-phosphate [5] is under 1e-05 s⁻¹. Moreover, in the series with glucosamine-6-phosphate [4], the “self-cleavage kobs at 2500 uM GlcN6P” value was under 1e-05 s⁻¹. The “self-cleavage kobs at 10000 uM GlcN6P” value with glucosamine-6-phosphate [2] is under 1e-05 s⁻¹.

As to AUAAAAGCGCCAGAACUACAGAAAUGUAUUUGACGAGGAGGAGGUUUAUGGAAUUUUCGUCGGAUGACUCCAAA [G29U C50G G60U C67A], the “self-cleavage kobs at 40 uM GlcN6P” value in the series with glucosamine-6-phosphate [1] came to 9.35e-05 ± 1.9e-05 s⁻¹. Also, the “self-cleavage kobs at 10000 uM GlcN6P” value with glucosamine-6-phosphate [2] was determined as 0.000133 ± 3e-05 s⁻¹.

As for AUAAAAGCGCCAGAACUACAGAAAUGUAGUUGAAGAGGAGGAGGUUUAUCGAAUUAUCGGCGGAUGCCUCCAAA [C34A U56A], the “self-cleavage kobs at 40 uM GlcN6P” value in the series with glucosamine-6-phosphate [1] was under 1e-05 s⁻¹. In addition, the “self-cleavage kobs at 160 uM GlcN6P” value with glucosamine-6-phosphate [3] was under 1e-05 s⁻¹. Also, in the series with glucosamine-6-phosphate [5], the “self-cleavage kobs at 640 uM GlcN6P” value was under 1e-05 s⁻¹. Besides, in the series with glucosamine-6-phosphate [4], the “self-cleavage kobs at 2500 uM GlcN6P” value was under 1e-05 s⁻¹.
